Measured values published in PMC12527912.
Each block holds one substance with its values, some of them ahead of it.

Legend:
[1] = target: lamin A tail LA 430-585;histone octamer (H2A, H2B, H3, H4) (Xenopus laevis) (UniProt P84233+P62799+P06897+P02281); assay: EMSA; conditions: 0.05 uM Alexa 488 nucleosome; LA 3.1-400 uM; EMSA: 150 mM NaCl, 20 mM HEPES pH 7.5, 1 mM DTT, 4 C, 1 h, 6% native PAGE; TIRF buffer not in the material
[2] = target: lamin A peptide LA 572-588;histone octamer (H2A, H2B, H3, H4) (;Xenopus laevis) (UniProt P02545+P84233+P62799+P06897+P02281); assay: competition (TIRF); conditions: EMSA: 150 mM NaCl, 20 mM HEPES pH 7.5, 1 mM DTT, 4 C, 1 h, 6% native PAGE; TIRF buffer not in the material
[3] = target: lamin A 430–585 C570A, labelled with CF660R (UniProt P02545); assay: fluorescence correlation spectroscopy (FCS); 500 pM CF660R-labelled LA 430–585 C570A, diffusion time against H2A–H2B concentration; 20 mM HEPES pH 8, 150 mM NaCl, 0.01% Tween20, 2 mM ascorbic acid and methyl viologen; one-to-one binding model
[4] = target: H4K20C nucleosome labelled with Alexa Fluor 488 (Xenopus laevis); assay: native gel or EMSA; 4 °C; 150 mM NaCl, 20 mM HEPES pH 7.5, 1 mM DTT; 0.05 µM Alexa 488-labeled nucleosomes with 3.1 µM to 400 µM lamin fragment, 1 h; 6% native PAGE
[5] = target: H4K20C nucleosome labelled with Alexa Fluor 488 (Xenopus laevis); assay: TIRF microscopy on micropatterned nucleosomes, competition; as a6 with 1 µM CF660R-labelled LA 430–585 and 0 to 1500 µM unlabelled peptide LA 572–588; ratio of lamin to nucleosome fluorescence fitted with a four-parameter dose–response Hill–Langmuir equation

Substance: 197 bp 601 nucleosome
Kd [1]: 48 µM | IC50 [2]: 5 µM

Kd [3]: 12 µM
Substance: H2A–H2B heterodimer (Xenopus laevis) (from UniProt P06897 11-120; P02281 1-126) (complex)

Kd [4]: 48 µM
Substance: lamin A 430–585, from the 6xHis-SUMO plasmid, tag cleaved (from UniProt P02545 430-585) (domain or fragment)

EC50 [5]: 5 µM
Substance: synthetic peptide comprising amino acids 572–588 of lamin A
